The domain aggregation screens of Martell et al. (2025)

Assay: soluble fraction after stress (log2 fold change); higher = more stays soluble; pooled small domains, quantitative proteomics
Conditions: stress: 50 degC
In short: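 After stress at 50°C, the amount of each protein still soluble was measured. This was done on pooled custom libraries of small protein domains, using high-throughput quantitative proteomics. The figure given is a base-two log fold change and stands for aggregation propensity, with higher values meaning more protein stays in solution.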

Going from “HMSTLSIHIPDKFAGQRLDQALAELYSQFSRSRLQQWLNDGELLVDGKSVKANKKVLGGEFIQILK” to “HMTSSKISFIDPVNGGKVSVSLENSTLEKLQNRFGVNSVVRNEAGDVELKDKAQEFVAGWFADIAYTRG”, the “soluble fraction (log2)” value rises from -0.861 to 0.0813.

Going from “HMRKRLLQLVHIGKSQLGMDDETYRSLLSQQFYQNSAKNISYSELVKLVKILQQKGAKIRLPH” to “HMGSFTDKQIKQAFGVLNDPRFKQGNYDGAVAVINKIAPGLADHPSVANALKRANEATQDIAQQTQA”, the “soluble fraction (log2)” value rises from -1.9 to 0.161.

“HMENFSTLFSRLKEERGLSNKQISSFTGAPIKEVKKWESGMGIPTEKRIVAALEGILGSEISKAI” and “HMSMSVLFSELDQKDAGVIVEKLKERKIPYELQSGGSAIMVPANVLHETRLQLAAEGLPQSS” are within 0.2 log units of each other in “soluble fraction (log2)” value: -0.0124 for the first, 0.0439 for the second.

Compared with “HMEPMNMYSSIKKVIGVVSGKGGVGKSLVTASLARMMRAKGYHVGIMDADITGPSIPKMYGLHEMA”, “HMYFFNTFTQRLFDNPELTQEEAIRQMYPGISGVQTAEKLQENFMADVYIQAAIRQEIVVQLIR” is lower in “soluble fraction (log2)” value: 0.42 for the first, -0.529 for the second.

First: HMAPRLTERERQVLQLIAEGLTSMQIGDRLHIAASTVDVHRRNLMRKLDLHNVADLTRYAITQGISP
Second: HMKAQTVPQFVGMTMTEAEEKASELGITLIEGAVVDSVEPKDTILTQDVDEGTEITGKMEIMVTISS
The “soluble fraction (log2)” value of the first is higher: -0.0624 for the first, -0.28 for the second.

Going from “HMNYTQAQIDRANAVSLEDFLRTQGETLIKSGREYRWKEHDSLTVRGNKWFRHSQSKGGYPIDFVMEFTA” to “HMTQQYVEWKVYNVTTIKNKYGFRVKLIFQDGSDATQQKGGFTSKKAAEQARTEVIGQLYSNTYVVY”, the “soluble fraction (log2)” value falls from 0.0368 to -4.49.

Going from “HMNRIEMTEPIIIKDLSRETGIPWVAIQKRLAQDGIMANINTTIEAEKAQLIAVDYGIELAVV” to “HMEDAFLQRLISIIEANLSNVDFNVKMLAEQLNMSQPTLYRKVKQRSELSVIDMIRSIRILSLIHISEPTR”, the “soluble fraction (log2)” value falls from 0.0679 to -0.988.

“HMELDLPLEELGLSTRVLHSLKEEGIESVRALLALNLKDLKNIPGIGERSLEEIKEALEKKGFTLK” and “HMSGTYIVTVQANTLDIYKSMTSNDTIGKANKGDVFQILEDMGGGYAKVSYNDVEGYISIKDGDTSIDEM” are within 0.2 log units of each other in “soluble fraction (log2)” value: -0.0498 for the first, -0.23 for the second.

“HMENEDMTGDIRVIDYIRNVAEYIQTTKGQASASQMLDRFLFPPELQYTPLDKLSGGEQRRLYLLKVLMEA” and “HMSEEKLVFSIPDDIETMRIDKAIALETHLSRAQIAELFKENKILLNSKNSKRSEKVKPGDKISLEFIPKI” are within 0.2 log units of each other in “soluble fraction (log2)” value: 0.0342 for the first, -0.00517 for the second.

“HMNGKWKLRIIKELLHSNIRFGQILKNIPDISPKVLSQQLKEMEEDGIIERIVISEMPPNVEYVLTDMGE” and “HMEDGEALARAVASLPGKYREVLFLKYSHGYSVDEIALILSMSKENVKKTIQRARKKLEQLLESE” are within 0.2 log units of each other in “soluble fraction (log2)” value: -0.789 for the first, -0.898 for the second.

Going from “HMHDYTTIIGVIELRLNKISYDNVQKRYRIGRSGISLIMERYRDSGLSLDDLKQMPAEKVVNLIYPKD” to “HMRKATEVPFTAFKDSIENSHGKLSKAGLARHLADEYGMSQRNMERRINNLIDNKTIKYGNEGGLVWIG”, the “soluble fraction (log2)” value rises from -0.954 to -0.0291.

“HMIPEKEISYMMPDGFMPKELKIIHITESGRKQIYSAAHKPLDLVNVKAPFVPNTKVQIYINDVPIEELKI” and “HMDKSHYEELGVSRTATHAEIRRAYRHLMRTLHPDSNDGRVDAVRITKVNEAWNVLSQSSSRNAYDKSQV” are within 0.2 log units of each other in “soluble fraction (log2)” value: -0.418 for the first, -0.38 for the second.

“HMDFGMPEELQKKLDKMPALKAAFEALTPGRQRGYIFYFSQPKQSKTRELRIEKSIEQIMNGKGLND” and “HMDLQNIQNQLNTEFAKSDTRIIFWFDDKGEYEDEVSELQLGDVKLHILDGLNWFYSKYLLNEA” are within 0.2 log units of each other in “soluble fraction (log2)” value: -0.115 for the first, -0.274 for the second.

Going from “HMKLVESALSILEEAVDRDFHGNLGDAARYFDIPYQTIYSWLKSRKRVPSLRALEPVLEKLGVSFTT” to “HMTYSSESVRYRIKSLIDNETIDEILSDDKIVNILKSQGIDVARRTVAKYREAMGLASSIQRRREKKSA”, the “soluble fraction (log2)” value rises from -0.896 to -0.375.

Compared with “HMDIGTYTVTASALNIRQYPTASSAKTGSYPNGSIVTIYEYLTDGSWGRTDDGWISMNYVSRRY”, “HMGVEKHLRITGTSTVSWKDAIVQAVAEASKTIDYLSNVKIIEQRARIDGKKLVEYFVDLDLSFVID” is higher in “soluble fraction (log2)” value: -2.01 for the first, -0.0917 for the second.

First: HMSGTESMIEGRGEARTAIDGEGKVFFQGEYWTAQSDQFIPQGAKVRIKKVEGLNLIVEEIK
Second: HMTTYTGVVTGSGVNVRSGAGTSYPVVGSKTMGDVVTITETVSADGMIWGKIDIGWISMNYVRM
The “soluble fraction (log2)” value of the first is higher: 0.0805 for the first, -0.75 for the second.

“HMTEKEEERTEDLNYYRLNLISMLKSSYPEYLDDEEFISNRSQEAAEAFEDAVRSGSNYLDASAESNRTLY” and “HMGVGVTAPLAGNIFKIVKQPGDVVASGDVVLILEAMKMETEIRAAAGGTVKQVLVREGDAVDAGHTLMTL” are within 0.2 log units of each other in “soluble fraction (log2)” value: -0.362 for the first, -0.309 for the second.

“HMGSYANAWQLAEHAAKDMLGEVIYLLDGKEVHAGILETMSAESIKTASAENVDGKVVIRLVSK” and “HMFLSQQDINRANAASVTDMGDIIRRTFERNAAEINGLELSDAEKKDAVKQMATLATTALKTAAGAVNPY” are within 0.2 log units of each other in “soluble fraction (log2)” value: -0.0617 for the first, -0.132 for the second.

First: HMRIQTVDYNTFISMVEDGKVDAAEIQQQENRILFSDQDQKVYKTAMVPDDDLTQRLLDAGVSTNG
Second: HMPSALGDKIRAARKALKLSLEDLAEKVSSSKSYMWELENRDEPNPGADLLMRIAAALNVTTEHLLGP
The “soluble fraction (log2)” value of the first is higher: 0.274 for the first, -0.0736 for the second.

“HMRDLAEAETILDALPTRLRKIVRWRHLEGLSQTEIAARLEISQMHVSRLYRRAISMIHASLADD” and “HMVITQVSTTQTDTTFQYHKVKPKETLFSISRLYEVSIDEIKTINPALNSRELMAGELLKLPIK” are within 0.2 log units of each other in “soluble fraction (log2)” value: -0.0123 for the first, -0.0212 for the second.

Compared with “HMPLSVRQRMSDILSNLKTSDFTNFADLFDPKEGRTGITVTFIAILELLREFLIEVVQSDHYQPLHVRAAS”, “HMSKTQYTFREVGSQFELHAPSTNHKIMVDANHPKYGWLSSQEAGRVINVYESGKMTSSQDYYGLYKQS” is higher in “soluble fraction (log2)” value: -0.291 for the first, -0.0727 for the second.

Going from “HMSVIKERLTEFLTYKGIGQIKFAEAAGLSRGFVNVLGDGISSKSLNKISQAFPELNTLWLTTGEGEML” to “HMITERVPVPDLTGMPLMEAIKTLNSSKLQYQVVGSVIEGDENRIIDQTPKPDIMVSEKSIVLLYLETYRG”, the “soluble fraction (log2)” value rises from -1.91 to -0.509.

First: HMVNDDTIAATEAEILALLADKHRHHITELNSIRRPYEQIDAALSSLINEEKIFQEDGMLFV
Second: HMENIIFDIGFHKGEDTLFYLLKGYRVIAVDADPDLINEWQNIFKKYIENGKLLLLNYVISDT
The “soluble fraction (log2)” value of the first is higher: 0.144 for the first, -1.33 for the second.

First: HMAGAITEREVEVLELLSRGLGNKEIAKELFVSEATVKSHLSHIYTKLAVDTRAGAVAAAIERRIIRAWR
Second: HMDPSKLVEVQEPVSMKALSEGLGIKVTELIATFAFKLKIGGKNINSMLSNDEVELVALDLERNIKVV
The “soluble fraction (log2)” value of the first is lower: -1.92 for the first, 0.164 for the second.

Compared with “HMRTDQYHYLAWKQVADELGIPFDEQVNERLRGVSRMASFDIILERYDGTMSDEEKIHWTDKKNEIYKSM”, “HMKSDVVFDITDGTVKAMLKFNRSDVTILNNDGKNYYLFTANGEFTFKYQDGSGEYYEKTVYVDWLEDE” is lower in “soluble fraction (log2)” value: -0.948 for the first, -1.24 for the second.

First: HMIFDPTTLPEKQLLVYGIISSHPGLNAKQISEMLTLKKSSIETAIKGLRKKEIIEYEGTTRNGG
Second: HMNIEDFKDKVKELKQYTYQELVEDVKLKTDRADVILPASKIYLEAMQQAKVDSIIVPKVGLAEGVAR
The “soluble fraction (log2)” value of the first is lower: -0.182 for the first, 0.0593 for the second.

“HMVPVVGTTIPHEFIGKFGSARVMLKPAVEGSGVIAGGSARAVLELAGYKDIKTKVLGTNNPRNVVYATMN” and “HMNAQLTTQEAADLLNVSRPHLVKLLEDGELPFLRTGKHRRVRLADLLQFKNAREQASVQAMDELSRQAQ” are within 0.2 log units of each other in “soluble fraction (log2)” value: 0.0414 for the first, 0.154 for the second.

Going from “HMSSDLLGVRVRRARARAGLTRRRLSLLSGVSERFLAQLESGQGNISIVLIRRVAAALGAELVELIGS” to “HMLSDEEKMAALNEQARQRGFTISPGVLPYLITHYQRDMHSLSMILDALDRYSLQTKRTITLPLLHDLLQQ”, the “soluble fraction (log2)” value falls from -0.74 to -1.06.

First: HMENKVLVITEEEKGKRLDVYLAAALEVSRSYAQQLIQGEDVVVNDKQVKANYRLSEGDVVQVQLD
Second: HMDAPRFAAGDAVRVAGLVSKPQHNGRAGSVLSYDPVSLRYIVKVDGEDEPLKLKPENVLMPA
The “soluble fraction (log2)” value of the first is higher: ≥ 0.62 for the first, 0.136 for the second.

First: HMKEILTNESIIQFVKDKVSEEQIIYKINNSPIDFKLDVNSMVSLAKQNVSSTIIIAMENAMNN
Second: HMSVDVEGNQRIPTEQVLSELRDVGVSFGKRVSGLNADTIRNQMIINNDEIAWLGVNVRGSRVYVEITERI
The “soluble fraction (log2)” value of the first is lower: -0.256 for the first, -0.018 for the second.

Going from “HMSQIANLLLSKNIKVNNQNIIYYETVLKYLPNNEKKEFFINAMKNNIYFTEEEIKNFGNIFN” to “HMRRPRGVFNLVPGKRFGFITPDGGGEDVFAHLANVRAGHVAEDRNAVEYGIGRGPDGRDQAVDIVPMP”, the “soluble fraction (log2)” value rises from -1.66 to -0.128.

Compared with “HMERMTSTEILTRDFLTTNSKIVKKSTIEELSEIIHVSPATIIRTVKKMGYSGFSEYKNELINQ”, “HMEMVSMPGLTGSTLEFATKTLTENELKYEVVYIVDASAESGLIIRTYPTEGEMVSKKTSTIYLYIKE” is lower in “soluble fraction (log2)” value: -0.06 for the first, -0.756 for the second.

First: HMSGDKKLQMNLILEFAQQNESFRTKDIEELLQIRSSRARKLISDLVTEGRLEALGENRNRRYQLI
Second: HMPVQSNRDALLDIGQTLQVQAWDAQGSARVSYRGSDWTAEFRGPGAAAPGLHRIIAVQGNRLIVEPA
The “soluble fraction (log2)” value of the first is lower: -0.985 for the first, 0.174 for the second.

Compared with “HMKTRTVVLKSAGGNKIAVIKIIKEITGLGLVEAKAVADNGGNIKENIPAEEAEAIKTQLTEAGAEVEL”, “HMFYNSSDNAYKILEINKSATVDEIKAAYRKMAKKYHPDKVIHLGQEHQKGAEEKFRQVQEAYEELQKERG” is higher in “soluble fraction (log2)” value: -0.192 for the first, 0.0887 for the second.

First: HMLDVGDQLVKKLKDNDSLDFHFVNSKEANKGLKDGDYYMVITIPSNFSKNATTLLDKNPKKMVLNYTTNP
Second: HMVSQELIMLGNRIREYRKERGFSQEILAEKSGVSTNTISRIEGGQMAMSVGILQRIVKALGVDANVMLG
The “soluble fraction (log2)” value of the first is higher: 0.0441 for the first, -0.332 for the second.

Going from “HMNMPDVTVEWVKEQQAKFGLTDSDLAKSVNIDNANLARIFNQRGLTKIHKALFYYFFRAYGLQ” to “HMPSPSTLAKVDPFLLVTNADSLLMARPDDSELRAAIITAHINLAKTNNSVDHYKEVLKIEPQNALANYN”, the “soluble fraction (log2)” value rises from -2.4 to 0.0175.

“HMSSTAIQAMIRRLIDGEDPRKPLSDARLAETLKASGVPVARRTVAKYRESMSIPSSQDRLRI” and “HMVEMIGLQMVGKSGIASTVLRPSGKVRIDGVVYDAVSEDGFIEKGQAVKVLRYETGQVYVEKL” are within 0.2 log units of each other in “soluble fraction (log2)” value: -0.156 for the first, -0.254 for the second.

In the case of “HMNASVIADLFRQTGASVMIHGHTHRPDIHALEANGDAAFRAVLGAWHTEGSMIRVTQDDVTLIAFP”, the “soluble fraction (log2)” value is reported as 0.0376.
